This sample holds only a part of the variants without activity.
How the values were obtained:
[1] = test system: biotinyl-Ile-oxazolone; assay: self-aminoacylation, catalytic enhancement (BIO) (fold over background); higher = more active; k-Seq, kA / k0A0; sequences stand for … in GGGAAUGGAUCCACAUCUACGAAUUC…UUCACUGCAGACUUGACGAAGCUG
Outline: (§1)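 Mutagenized RNA pools with a 21-nt variable region (0.43 μM) reacted with each biotinyl-aminoacyl-oxazolone at 2–1250 μM. Reactions ran in 50 μL HEPES/NaCl/KCl/MgCl2/CaCl2 buffer with 5% acetonitrile, pH 6.9–7.0, for 90 minutes at room temperature. Streptavidin-captured RNA was quantified by triplicate qPCR and Illumina sequencing, and per-sequence fraction reacted was fit to a pseudo-first-order model with 1000 bootstraps. Catalytic enhancement is median kA divided by the uncatalyzed rate, the low-activity peak of a bimodal Gaussian fit.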

[2] = test system: biotinyl-Val-oxazolone; assay: self-aminoacylation, catalytic enhancement (BVO) (fold over background); higher = more active; k-Seq, kA / k0A0; sequences stand for … in GGGAAUGGAUCCACAUCUACGAAUUC…UUCACUGCAGACUUGACGAAGCUG
Outline: as §1

[3] = test system: biotinyl-Phe-oxazolone; assay: self-aminoacylation, catalytic enhancement (BFO) (fold over background); higher = more active; k-Seq, kA / k0A0; sequences stand for … in GGGAAUGGAUCCACAUCUACGAAUUC…UUCACUGCAGACUUGACGAAGCUG
Outline: as §1

[4] = test system: biotinyl-Met-oxazolone; assay: self-aminoacylation, catalytic enhancement (BMO) (fold over background); higher = more active; k-Seq, kA / k0A0; sequences stand for … in GGGAAUGGAUCCACAUCUACGAAUUC…UUCACUGCAGACUUGACGAAGCUG
Outline: as §1

[5] = test system: biotinyl-Leu-oxazolone; assay: self-aminoacylation, catalytic enhancement (BLO) (fold over background); higher = more active; k-Seq, kA / k0A0; sequences stand for … in GGGAAUGGAUCCACAUCUACGAAUUC…UUCACUGCAGACUUGACGAAGCUG
Outline: as §1

[6] = test system: biotinyl-Trp-oxazolone; assay: self-aminoacylation, catalytic enhancement (BWO) (fold over background); higher = more active; k-Seq, kA / k0A0; sequences stand for … in GGGAAUGGAUCCACAUCUACGAAUUC…UUCACUGCAGACUUGACGAAGCUG
Outline: as §1

Row | Sequence | self-aminoacylation [1] | self-aminoacylation [2] | self-aminoacylation [3] | self-aminoacylation [4] | self-aminoacylation [5] | self-aminoacylation [6]
1 | GAGUUUGCUAGUAGUCGCAAG [Fam3.1 aminoacylation ribozyme variant] | 1.21 | 1.04 | 1.92 | 1.28 | 0.89 | 0.876
2 | GAGUUUGCUCAUAGUCGCAAG [Fam3.1 aminoacylation ribozyme variant] | 1.72 | 1.59 | 7.43 | 1.73 | 2.12 | 2.62
3 | GCACACGUCAAGCAAUCGGUC [Fam1B.1 aminoacylation ribozyme variant] | 2.63 | 2.85 | 11.5 | 2.47 | 2.18 | 3.95
4 | GCACACUUCAAGCAAUCCGUC [Fam1B.1 aminoacylation ribozyme variant] | 1.66 | 1.98 | 1.76 | 1.2 | 1.71 | 2.01
5 | GCACACUUCAAGCAAUCGGUA [Fam1B.1 aminoacylation ribozyme variant] | 2.84 | 2.5 | 2.95 | 1.98 | 2.26 | 3.53
6 | GCACACUUCAAGCGAUCGGUC [Fam1B.1 aminoacylation ribozyme variant] | 1.66 | 1.82 | 1.41 | 1.33 | 1.54 | 2.19
7 | GCACACUUUAAGCAAUCGGUC [Fam1B.1 aminoacylation ribozyme variant] | 1.3 | 1.17 | 1.39 | 1.04 | 1.11 | 1.44
8 | GCACUUCAAACAAUCGGUCUG [Fam1A.1 aminoacylation ribozyme variant] | 2.33 | 2.16 | 156 | 2.32 | 4.11 | 62.3
9 | GCUACCCUGGUCAUCGAGUGA [Fam2.1 aminoacylation ribozyme variant] | 6.27 | 6.39 | 29.5 | 11.4 | 12.3 | 15.5
10 | GGUCACCUAGGUCAUCGGGUG [Fam2.2 aminoacylation ribozyme variant] | 4.07 | 5.01 | 30.3 | 4.37 | 3.98 | 6.88
11 | GUACUUCAAAAAAUCGGUCUG [Fam1A.1 aminoacylation ribozyme variant] | 1.57 | 1.11 | 7.83 | 1.16 | 1.62 | 7.93
12 | GUACUUCAAACAAACGGUCUG [Fam1A.1 aminoacylation ribozyme variant] | 1.43 | 1.15 | 1.72 | 1.22 | 1.31 | 1.15
13 | GUACUUCAAACAACCGGUCUG [Fam1A.1 aminoacylation ribozyme variant] | 1.67 | 1.54 | 4.78 | 1.21 | 1.23 | 2.02
14 | GUACUUCAAACAAUCGGUCAG [Fam1A.1 aminoacylation ribozyme variant] | 1.5 | 1.34 | 7.14 | 1.31 | 1.43 | 7.34
15 | GUACUUCAAACAAUCGGUCUC [Fam1A.1 aminoacylation ribozyme variant] | 1.5 | 1.4 | 39.5 | 1.65 | 2.06 | 26.5
16 | GUACUUCAAACAAUCGGUCUU [Fam1A.1 aminoacylation ribozyme variant] | 1.43 | 1.3 | 12.8 | 1.14 | 1.49 | 12
17 | GUACUUCAAACAAUCGUUCUG [Fam1A.1 aminoacylation ribozyme variant] | 1.15 | 1.13 | 2.04 | 0.889 | 0.972 | 2.37
18 | GUACUUCAAACAAUUGGUCUG [Fam1A.1 aminoacylation ribozyme variant] | 1.36 | 1.16 | 1.82 | 1.18 | 1.34 | 1.75
19 | GUACUUCAAACUAUCGGUCUG [Fam1A.1 aminoacylation ribozyme variant] | 1.38 | 1.26 | 1.78 | 1.29 | 1.14 | 1.46
20 | GUACUUCAACCAAUCGGUCUG [Fam1A.1 aminoacylation ribozyme variant] | 1.39 | 1.28 | 16.5 | 1.39 | 1.59 | 15.1
21 | GUGCACCUAGGUCAUCGGGUG [Fam2.2 aminoacylation ribozyme variant] | 3.96 | 4.64 | 26.8 | 3.85 | 3.9 | 6.04
22 | GUUACCCUGGCCAUCGAGUGA [Fam2.1 aminoacylation ribozyme variant] | 4.06 | 5 | 43.7 | 6.73 | 8.07 | 9.03
23 | GUUACCCUGGUCAACGAGUGA [Fam2.1 aminoacylation ribozyme variant] | 3.72 | 3.22 | 42.7 | 5.98 | 6.2 | 6.61
24 | GUUACCCUGGUCAUCGAGGGA [Fam2.1 aminoacylation ribozyme variant] | 3.06 | 2.7 | 4.93 | 5.05 | 4.18 | 5.33
25 | GUUACCCUGGUUAUCGAGUGA [Fam2.1 aminoacylation ribozyme variant] | 5.48 | 5.74 | 57.6 | 11.6 | 11.8 | 13
26 | GUUACUCUGGUCAUCGAGUGA [Fam2.1 aminoacylation ribozyme variant] | 4.98 | 4.18 | 32.9 | 6.92 | 7.08 | 9.78

Row | Sequence | self-aminoacylation [1] | self-aminoacylation [2] | self-aminoacylation [3] | self-aminoacylation [4] | self-aminoacylation [5] | self-aminoacylation [6]
27 | GUUCACCAAGGUCAUCGGGUG [Fam2.2 aminoacylation ribozyme variant] | 4.16 | 4.45 | 64.7 | 6.5 | 8.83 | 6
28 | GUUCACCGAGGUCAUCGGGUG [Fam2.2 aminoacylation ribozyme variant] | 4.56 | 4.56 | 55.9 | 6.57 | 8.58 | 7.43
29 | GUUCACCUACGUCAUCGGGUG [Fam2.2 aminoacylation ribozyme variant] | 3.26 | 3.69 | 31 | 4.35 | 5.15 | 4.3
30 | GUUCACCUAGGUAAUCGGGUG [Fam2.2 aminoacylation ribozyme variant] | 2.38 | 2.12 | 9.25 | 2.74 | 2.92 | 3.83
31 | GUUCACCUAGGUCAGCGGGUG [Fam2.2 aminoacylation ribozyme variant] | 2.92 | 3.23 | 26.1 | 4.02 | 4.21 | 4.42
32 | GUUCACCUAGGUCAUCAGGUG [Fam2.2 aminoacylation ribozyme variant] | 1.23 | 1.35 | 2.03 | 1.09 | 1.32 | 1.06
33 | GUUCACCUAGGUCAUCGAGUG [Fam2.2 aminoacylation ribozyme variant] | 8.09 | 6.89 | 27.6 | 11.4 | 15.7 | 6.52
34 | GUUCACCUAGGUCAUCGCGUG [Fam2.2 aminoacylation ribozyme variant] | 6.72 | 6.96 | 96.1 | 10.5 | 15 | 10.6
35 | GUUCACCUAGGUCAUCGGCUG [Fam2.2 aminoacylation ribozyme variant] | 1.67 | 1.98 | 7.17 | 1.49 | 2.04 | 1.97
36 | GUUCACCUAGGUGAUCGGGUG [Fam2.2 aminoacylation ribozyme variant] | 3.88 | 3.88 | 21 | 3.88 | 4.25 | 4.84
37 | GUUCACCUAUGUCAUCGGGUG [Fam2.2 aminoacylation ribozyme variant] | 3.1 | 3.31 | 21.4 | 4.03 | 5.63 | 4.3
38 | GUUCAGCUAGGUCAUCGGGUG [Fam2.2 aminoacylation ribozyme variant] | 3.97 | 4.11 | 25 | 3.72 | 5.08 | 5.82
39 | GUUCGCCUAGGUCAUCGGGUG [Fam2.2 aminoacylation ribozyme variant] | 9.85 | 10.2 | 121 | 18.9 | 22.8 | 14.9
40 | GUUCUUCAAACAAUCGGUCUG [Fam1A.1 aminoacylation ribozyme variant] | 0.863 | 0.824 | 3.63 | 1 | 0.983 | 2.39
41 | UAGUCUGCUAAUAGUCGCAAG [Fam3.1 aminoacylation ribozyme variant] | 2.01 | 1.81 | 32.7 | 2.17 | 1.83 | 9.92
42 | UAGUUUGCUAAUAGCCGCAAG [Fam3.1 aminoacylation ribozyme variant] | 1.22 | 1.05 | 2.71 | 0.885 | 1.25 | 1.88
43 | UAGUUUGCUAAUAGUCCCAAG [Fam3.1 aminoacylation ribozyme variant] | 1.03 | 0.864 | 2.1 | 0.851 | 0.805 | 1.37
44 | UAGUUUGCUAAUAGUCGCAAA [Fam3.1 aminoacylation ribozyme variant] | 1.95 | 1.38 | 1.58 | 1.75 | 1.53 | 2.06
45 | UAGUUUGCUAAUAGUCGCCAG [Fam3.1 aminoacylation ribozyme variant] | 1.47 | 1.2 | 1.74 | 1.69 | 1.7 | 1.16
46 | UAGUUUGCUAAUAGUGGCAAG [Fam3.1 aminoacylation ribozyme variant] | 0.819 | 0.688 | 1.63 | 0.891 | 0.753 | 0.543
47 | UAGUUUGCUAAUAUUCGCAAG [Fam3.1 aminoacylation ribozyme variant] | 1.3 | 1.26 | 1.71 | 1.22 | 1.04 | 1.21
48 | UAGUUUGCUACUAGUCGCAAG [Fam3.1 aminoacylation ribozyme variant] | 1.42 | 1.1 | 1.57 | 1.24 | 1.23 | 1.23
49 | UAGUUUGCUUAUAGUCGCAAG [Fam3.1 aminoacylation ribozyme variant] | 1.53 | 1.54 | 2.08 | 1.84 | 1.59 | 1.81
50 | UAUUUUGCUAAUAGUCGCAAG [Fam3.1 aminoacylation ribozyme variant] | 1.75 | 1.52 | 1.99 | 1.65 | 1.31 | 1.47
51 | UCACACUCCAAGCAAUCGGUC [Fam1B.1 aminoacylation ribozyme variant] | 0.885 | 1.13 | 2.4 | 0.825 | 0.792 | 1.44

Source: the supplement of paper PMC9233669
